According to US20110135656A1:

Target: C5a receptor (mouse) (UniProt P30993)
Assay: cell-based or functional assay

Sequence of C5a receptor (mouse) (P30993 whole entry): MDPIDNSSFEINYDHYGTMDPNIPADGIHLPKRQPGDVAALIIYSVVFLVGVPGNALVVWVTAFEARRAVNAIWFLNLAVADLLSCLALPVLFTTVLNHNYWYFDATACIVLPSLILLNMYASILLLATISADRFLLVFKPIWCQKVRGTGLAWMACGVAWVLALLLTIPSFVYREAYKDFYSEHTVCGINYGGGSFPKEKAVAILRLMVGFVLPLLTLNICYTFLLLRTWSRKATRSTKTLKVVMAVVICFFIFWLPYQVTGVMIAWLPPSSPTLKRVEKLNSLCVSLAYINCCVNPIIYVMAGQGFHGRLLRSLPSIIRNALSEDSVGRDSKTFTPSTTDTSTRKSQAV

Murine C5a (from UniProt P06684 679-755) (ligand)
6 hr viability of C5-deficient or C3-/- T cells in serum-free medium: 25%
